Results from EP4289863A9.

Legend:
human IL-36R (human) [1] = molecular target: T1, human IL-36R (human) (UniProt Q9HB29); assay: cell-based or functional assay
T1 sequence (looked up): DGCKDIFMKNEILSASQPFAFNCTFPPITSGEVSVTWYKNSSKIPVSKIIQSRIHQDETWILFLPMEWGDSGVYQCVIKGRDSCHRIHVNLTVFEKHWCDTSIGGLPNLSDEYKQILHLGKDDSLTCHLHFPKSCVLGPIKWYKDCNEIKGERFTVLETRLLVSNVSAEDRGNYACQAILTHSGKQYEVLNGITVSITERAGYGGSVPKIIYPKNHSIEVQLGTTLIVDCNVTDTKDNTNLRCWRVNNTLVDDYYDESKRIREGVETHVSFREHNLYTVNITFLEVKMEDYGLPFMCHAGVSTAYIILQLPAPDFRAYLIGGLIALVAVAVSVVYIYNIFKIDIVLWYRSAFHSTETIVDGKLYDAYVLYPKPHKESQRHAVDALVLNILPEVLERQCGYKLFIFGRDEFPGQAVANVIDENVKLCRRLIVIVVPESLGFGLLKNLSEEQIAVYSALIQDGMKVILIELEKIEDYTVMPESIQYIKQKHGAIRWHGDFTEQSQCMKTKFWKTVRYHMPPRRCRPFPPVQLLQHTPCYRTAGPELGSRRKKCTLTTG

human IL-36R (human) [2] = molecular target: T1, human IL-36R (human); assay: flow cytometry on cells, hybridoma supernatant
human IL1R1 (human) = human IL1R1 (human) (UniProt P14778); assay: flow cytometry on cells, hybridoma supernatant
monkey IL-36R (monkey) = assay: flow cytometry on cells, hybridoma supernatant
[3] = molecular target: T2, human IL-36R (antigen of the OD450 binding screen of Table 1) (human) (UniProt Q9HB29); assay: OD450 binding screen of hybridoma supernatant, antigen not named
T2 sequence (looked up): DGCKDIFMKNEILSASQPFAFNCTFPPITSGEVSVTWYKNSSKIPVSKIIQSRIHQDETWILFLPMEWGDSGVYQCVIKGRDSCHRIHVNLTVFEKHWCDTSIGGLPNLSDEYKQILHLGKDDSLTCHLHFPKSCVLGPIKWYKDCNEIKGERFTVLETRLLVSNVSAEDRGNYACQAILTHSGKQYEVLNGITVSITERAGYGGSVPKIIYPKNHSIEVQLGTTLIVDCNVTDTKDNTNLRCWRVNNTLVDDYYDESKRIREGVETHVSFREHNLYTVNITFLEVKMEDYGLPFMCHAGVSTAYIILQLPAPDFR

Chain of human IL1R1 (human) (P14778 18-569): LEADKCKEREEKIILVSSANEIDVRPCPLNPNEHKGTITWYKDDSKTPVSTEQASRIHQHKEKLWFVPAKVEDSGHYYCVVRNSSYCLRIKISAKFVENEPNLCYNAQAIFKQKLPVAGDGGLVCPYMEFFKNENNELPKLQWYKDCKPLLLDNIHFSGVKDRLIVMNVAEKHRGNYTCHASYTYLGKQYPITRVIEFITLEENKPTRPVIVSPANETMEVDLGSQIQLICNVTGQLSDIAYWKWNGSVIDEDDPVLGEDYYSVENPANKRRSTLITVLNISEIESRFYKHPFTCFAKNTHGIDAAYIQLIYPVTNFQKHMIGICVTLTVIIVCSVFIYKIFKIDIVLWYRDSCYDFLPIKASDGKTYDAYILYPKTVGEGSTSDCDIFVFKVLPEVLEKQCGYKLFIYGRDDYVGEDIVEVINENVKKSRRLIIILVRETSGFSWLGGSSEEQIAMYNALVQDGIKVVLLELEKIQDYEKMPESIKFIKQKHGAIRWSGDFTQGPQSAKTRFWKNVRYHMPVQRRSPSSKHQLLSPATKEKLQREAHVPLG

IL-6 ratio in blockage of human IL36β functional activity (hybridoma supernatant/positive control) (human IL-36R (human) [1]): 0.07%
IL-8 ratio in blockage of human IL36α functional activity (hybridoma supernatant/positive control) (human IL-36R (human) [1]): -4.02%
IL-8 ratio in blockage of human IL36β functional activity (hybridoma supernatant/positive control) (human IL-36R (human) [1]): -4.62%
IL-8 ratio in blockage of human IL36γ functional activity (hybridoma supernatant/positive control) (human IL-36R (human) [1]): -3.86%
MFI ratio (hybridoma supernatant/positive control) (human IL-36R (human) [2]): 81.6%
MFI ratio (hybridoma supernatant/negative control) (human IL1R1 (human)): 118%
MFI ratio (hybridoma supernatant/positive control) (monkey IL-36R (monkey)): 105%
Binding activity OD450 value [3]: 2.16 OD450
B1: 111(1)-E5 (antibody, part only; not given: light chain, V domains shown, part only)
VH: QVQLQQTGSVLVRPGTSVKLSCKASGYTFTSSWMHWAKQRPGQGLEWIGEIHPNSAKTNYNEKFKGKATLTVDTFSSTAYVDLSSLASEDSAVYYCARVDYGKPWFAYWGQGTLVTVSA
